experiment: soluble on expression in E. coli; label from the status in PepcDB or PDB records

Sequence	soluble on expression in E. coli
MIPVVYSNLCPVCGGDLESKEIEKHVCFRKKRSLCLFPEDFLLKEFVEFFRKCVGEPRAIQKMWAKRILRKESFAATAPTGVGKTSFGLAMSLFLALKGKRCYVIFPTSLLVIQAAETIRKYAEKAGVGTENLIGYYHGRIPKREKENFMQNLRNFKIVITTTQFLSKHYRELGHFDFIFVDDVDAILKASKNVDKLLHLLGFHYDLKTKSWVGEARGCLMVSTATAKKGKKAELFRQLLNFDIGSSRITVRNVEDVAVNDESISTLSSILEKLGTGGIIYARTGEEAEEIYESLKNKFRIGIVTATKKGDYEKFVEGEIDHLIGTAHYYGTLVRGLDLPERIRFAVFVGCPSFRVTIEDIDSLSPQMVKLLAYLYRNVDEIERLLPAVERHIDEVREILKKVMGKERPQAKDVVVREGEVIFPDLRTYIQGSGRTSRLFAGGLTKGASFLLEDDSELLSAFIERAKLYDIEFKSIDEVDFEKLSRELDESRDRYRRRQEFDLIKPALFIVESPTKARQISRFFGKPSVKVLDGAVVYEIPMQKYVLMVTASIGHVVDLITNRGFHGVLVNGRFVPVYASIKRCRDCGYQFTEDRESCPKCGSENVDNSRSRIEALRKLAHDAEFVIVGTDPDTEGEKIAWDLKNLLSGCGAVKRAEFHEVTRRAILEALESLRDVDENLVKAQVVRRIEDRWIGFVLSQKLWERFNNRNLSAGRAQTLVLGWIIDRFQESRERRKIAIVRDFDLVLEHDEEEFDLTIKLVEEREELRTPLPPYTTETMLSDANRILKFSVKQTMQIAQELFENGLITYHRTDSTRVSDVGQRIAKEYLGDDFVGREWGESGAHECIRPTRPLTRDDVQRLIQEGVLVVEGLRWEHFALYDLIFRRFMASQCRPFKVVVKKYSIEFDGKTAEEERIVRAEGRAYELYRAVWVKNELPTGTFRVKAEVKSVPKVLPFTQSEIIQMMKERGIGRPSTYATIVDRLFMRNYVVEKYGRMIPTKLGIDVFRFLVRRYAKFVSEDRTRDLESRMDAIERGELDYLKALEDMYAEIKSID	soluble
MMTRKKELAIALSKLKGFKNPKVWLEQYRTPGNAASELLWLAYSLGDIEGKVVADLGAGTGVLSYGALLLGAKEVICVEVDKEAVDVLIENLGEFKGKFKVFIGDVSEFNSRVDIVIMNPPFGSQRKHADRPFLLKAFEISDVVYSIHLAKPEVRRFIEKFSWEHGFVVTHRLTTKIEIPLQFFFHRKKLERITVDIYRFSKVINSR	soluble
MGSSHHHHHHSSGLVPRGSTYKLTLIRHGESEWNKENRFTGWTDVSLSEQGVSEAIEAGRMLLEKGFKFDVVYTSVLKRAIMTTWTVLKELGNINCPIINHWRLNERHYGALQGLNKSETASKFGEDQVKIWRRSFDVPPPVLEKSDPRWPGNELIYKGICPSCLPTTECLKDTVERVKPYFEDVIAPSIMSGKSVLVSAHGNSLRALLYLLEGMTPEQILEVNIPTACPLVLELDDYLKVTKKYYLISEEELKAKMEAVANQGKAK	soluble
MGSDKIHHHHHHLKVLMYSISLAYMIRNLPYASLRAFEAVVRLGSFSAAAGDLGVSQSAVSQHVKSLEEWLGQELLVRGARASKGTRYGTLLAREIDRGLGGISEVCTQIRAASHSDTTVVISCLPGFAFTWLFPRLLRFDLAHPDLSISIATDTGGRPFNPADADIGIRYGHGEFPNLRVDHLMGERLFPVCAPQVAERLTDVASLGQHTLLQDEILNFGSANPSWEYWAEACGVHLPSRARTRRFGQSNLVLQAAIEGLGVALGREPLVLDALTDGRLVRPFTQNVKSPLSYWLVRRKQADDSPKVQEFLKWIKKEAETQPDIPASLNKFA	not soluble
MGSDKIHHHHHHMSQINASASGTYAFDDQFKVNRLGYGTMQLTGEGTWGPYDDPNNAVSVIKKAVDLGINFFDTADSYGPWFADRYLAEGLKSASNRDEIFISDKVGQTRQGPGVWTPHGEPNYLRQQVEVSLMTLGIDHEDLLFLHRIDSHFSVAEQVGELKKLQDEGKIKHIGLSQVTVGQIKEAQKYAKIDAVENLYNVSDHRDDDVLDYAESQHMAFVPWFPLNTEKLTGANSPLAKIANKYKASPAQIALAWLLKRSGNVLPIPGTSSVAHLEDNVAAASIKLSDDDFKAITNLGVSNR	not soluble
MAHHHHHHMTQSVSIGADHRLEATTSDCVSSVCFSPKECPMLMTGVASWDGSCSIWQVARNPAGAVISQPAWTTTHDSPLLTMSFSADGRVFFGGCSKTAVMWDLNSNQKAVVASHDLPISCLDFLTLPQTMSQMLITGSWDGKLRWWDLRQQSYVREENLGEPVFALDAQKTVPMMAAATGRLAHVYDVQQMQKVNELKLPDVMKFNLRCITCAPQYDGVGVGSSEGRVSFISMKDAPGCTFKAHITTEKSHYILSQTNFCVHHPTLPLLLSGGGDGNLTVINRADRKVIKTLQCEQKVGTQAIPISAGDISADGSLVAYAHSYDWAMGKSGYRNQPTSVHIRPLS	not soluble

Reference: the DeepSol protein solubility set
